Assay results published in US8969060B2, “Modified glucose dehydrogenase” (Ikeda Food Research Co., Ltd., priority 2011, dated 2015).
Several values for one entry are separate records, joined by “and”; a condition that tells them apart may be missing. Equal entries are not always repeated.

What was measured:
[1] = Relative enzymatic activity of GLD (DCIP/1-m-PMS, plate reader, yeast culture supernatant) with 1,10-phenanthroline present; format: biochemical; conditions: site-specific mutants, inhibitor final concentration 1 mM
Summary of the method: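 Inhibitor at 1 mM final substitutes for the methanol in the reagent, and the sample rate is expressed as % of the inhibitor-free blank. Rates come from ΔA600/min of DCIP with glucose and 1-m-PMS at pH 7.0, using supernatants of YPD-grown yeast clones (24 h, 30° C.).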

[2] = Relative enzymatic activity of GLD (DCIP/1-m-PMS, plate reader, yeast culture supernatant) with proflavin hydrochloride present; format: biochemical; conditions: site-specific mutants, inhibitor final concentration 1 mM
Summary of the method: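 Culture supernatant diluted and mixed with reagent of phosphate buffer pH 7.0, 1.0 M D-glucose, 3 mM DCIP, 3 mM 1-m-PMS and methanol (0.1:1:0.14:0.2:0.06). DCIP absorbance decrease at 600 nm followed; proflavin hydrochloride in methanol replaced methanol at 1 mM final. Activity expressed as % of inhibitor-free blank.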

B1: K354F: modified GLD: SEQ ID NO: 1 with substitution K354F (protein, listed as Aspergillus terreus)
chain: MLGKLSFLSALSLAVAAPLSNSTSAKYDYIVIGGGTSGLAVANRLSEDPNVNVLILEAGGSVWNNPNVTNVDGYGLAFGSDIDWQYQSVNQPYGGNLSQVLRAGKALGGTSTINGMAYTRAEDVQIDAWETIGNTGWTWKNLFPYYRKSENFTVPTKSQTSLGASYEAGAHGHEGPLDVAFTQIESNNLTTYLNRTFQGMGLPWTEDVNGGKMRGFNLYPSTVNLEEYVREDAARAYYWPYKSRPNLHVLLNTFANRIVWDGEAHDGHITASGVEITSRNGTVRVINAEKEVIVSAGALKSPAILELSGIGNPSVLDKHNIPVKVNLPTVGENLQDQVNSHMDASGNTSISGTFAVSYPDVYDVFGDEAESVAKQIRANLKQYAADTAKANGNIMKAADLERLFEVQYDLIFKGRVPIAEVLNYPGSATSVFAEFWALLPFARGSVHIGSSNPAEFPVINPNYFMLDWDAKSYVAVAKYIRRSFESYPLSSIVKESTPGYDVIPRNASEQSWKEWVFDKNYRSNFHPVGTAAMMPREIGGVVDERLNVYGTTNVRVVDASVLPFQVCGHLVSTLYAVAERAADLIKADAGRR
modifications: SIGNAL (1)..(19)
Relative Activity [%] 1,10-Phenanthroline [1]: 47.8% | Relative Activity [%] Proflavin hydrochloride [2]: 16.0%

B2: K354P: modified GLD: SEQ ID NO: 1 with substitution K354P (protein, listed as Aspergillus terreus)
chain: MLGKLSFLSALSLAVAAPLSNSTSAKYDYIVIGGGTSGLAVANRLSEDPNVNVLILEAGGSVWNNPNVTNVDGYGLAFGSDIDWQYQSVNQPYGGNLSQVLRAGKALGGTSTINGMAYTRAEDVQIDAWETIGNTGWTWKNLFPYYRKSENFTVPTKSQTSLGASYEAGAHGHEGPLDVAFTQIESNNLTTYLNRTFQGMGLPWTEDVNGGKMRGFNLYPSTVNLEEYVREDAARAYYWPYKSRPNLHVLLNTFANRIVWDGEAHDGHITASGVEITSRNGTVRVINAEKEVIVSAGALKSPAILELSGIGNPSVLDKHNIPVKVNLPTVGENLQDQVNSHMDASGNTSISGTPAVSYPDVYDVFGDEAESVAKQIRANLKQYAADTAKANGNIMKAADLERLFEVQYDLIFKGRVPIAEVLNYPGSATSVFAEFWALLPFARGSVHIGSSNPAEFPVINPNYFMLDWDAKSYVAVAKYIRRSFESYPLSSIVKESTPGYDVIPRNASEQSWKEWVFDKNYRSNFHPVGTAAMMPREIGGVVDERLNVYGTTNVRVVDASVLPFQVCGHLVSTLYAVAERAADLIKADAGRR
modifications: SIGNAL (1)..(19)
Relative Activity [%] 1,10-Phenanthroline [1]: 64.3% | Relative Activity [%] Proflavin hydrochloride [2]: 16.7%

B3: K354M: modified GLD: SEQ ID NO: 1 with substitution K354M (protein, listed as Aspergillus terreus)
chain: MLGKLSFLSALSLAVAAPLSNSTSAKYDYIVIGGGTSGLAVANRLSEDPNVNVLILEAGGSVWNNPNVTNVDGYGLAFGSDIDWQYQSVNQPYGGNLSQVLRAGKALGGTSTINGMAYTRAEDVQIDAWETIGNTGWTWKNLFPYYRKSENFTVPTKSQTSLGASYEAGAHGHEGPLDVAFTQIESNNLTTYLNRTFQGMGLPWTEDVNGGKMRGFNLYPSTVNLEEYVREDAARAYYWPYKSRPNLHVLLNTFANRIVWDGEAHDGHITASGVEITSRNGTVRVINAEKEVIVSAGALKSPAILELSGIGNPSVLDKHNIPVKVNLPTVGENLQDQVNSHMDASGNTSISGTMAVSYPDVYDVFGDEAESVAKQIRANLKQYAADTAKANGNIMKAADLERLFEVQYDLIFKGRVPIAEVLNYPGSATSVFAEFWALLPFARGSVHIGSSNPAEFPVINPNYFMLDWDAKSYVAVAKYIRRSFESYPLSSIVKESTPGYDVIPRNASEQSWKEWVFDKNYRSNFHPVGTAAMMPREIGGVVDERLNVYGTTNVRVVDASVLPFQVCGHLVSTLYAVAERAADLIKADAGRR
modifications: SIGNAL (1)..(19)
Relative Activity [%] 1,10-Phenanthroline [1]: 53.5% | Relative Activity [%] Proflavin hydrochloride [2]: 10.7%

B4: K354Y: modified GLD: SEQ ID NO: 1 with substitution K354Y (protein, listed as Aspergillus terreus)
chain: MLGKLSFLSALSLAVAAPLSNSTSAKYDYIVIGGGTSGLAVANRLSEDPNVNVLILEAGGSVWNNPNVTNVDGYGLAFGSDIDWQYQSVNQPYGGNLSQVLRAGKALGGTSTINGMAYTRAEDVQIDAWETIGNTGWTWKNLFPYYRKSENFTVPTKSQTSLGASYEAGAHGHEGPLDVAFTQIESNNLTTYLNRTFQGMGLPWTEDVNGGKMRGFNLYPSTVNLEEYVREDAARAYYWPYKSRPNLHVLLNTFANRIVWDGEAHDGHITASGVEITSRNGTVRVINAEKEVIVSAGALKSPAILELSGIGNPSVLDKHNIPVKVNLPTVGENLQDQVNSHMDASGNTSISGTYAVSYPDVYDVFGDEAESVAKQIRANLKQYAADTAKANGNIMKAADLERLFEVQYDLIFKGRVPIAEVLNYPGSATSVFAEFWALLPFARGSVHIGSSNPAEFPVINPNYFMLDWDAKSYVAVAKYIRRSFESYPLSSIVKESTPGYDVIPRNASEQSWKEWVFDKNYRSNFHPVGTAAMMPREIGGVVDERLNVYGTTNVRVVDASVLPFQVCGHLVSTLYAVAERAADLIKADAGRR
modifications: SIGNAL (1)..(19)
Relative Activity [%] 1,10-Phenanthroline [1]: 56.0% | Relative Activity [%] Proflavin hydrochloride [2]: 15.1%

B5: K354H: modified GLD: SEQ ID NO: 1 with substitution K354H (protein, listed as Aspergillus terreus)
chain: MLGKLSFLSALSLAVAAPLSNSTSAKYDYIVIGGGTSGLAVANRLSEDPNVNVLILEAGGSVWNNPNVTNVDGYGLAFGSDIDWQYQSVNQPYGGNLSQVLRAGKALGGTSTINGMAYTRAEDVQIDAWETIGNTGWTWKNLFPYYRKSENFTVPTKSQTSLGASYEAGAHGHEGPLDVAFTQIESNNLTTYLNRTFQGMGLPWTEDVNGGKMRGFNLYPSTVNLEEYVREDAARAYYWPYKSRPNLHVLLNTFANRIVWDGEAHDGHITASGVEITSRNGTVRVINAEKEVIVSAGALKSPAILELSGIGNPSVLDKHNIPVKVNLPTVGENLQDQVNSHMDASGNTSISGTHAVSYPDVYDVFGDEAESVAKQIRANLKQYAADTAKANGNIMKAADLERLFEVQYDLIFKGRVPIAEVLNYPGSATSVFAEFWALLPFARGSVHIGSSNPAEFPVINPNYFMLDWDAKSYVAVAKYIRRSFESYPLSSIVKESTPGYDVIPRNASEQSWKEWVFDKNYRSNFHPVGTAAMMPREIGGVVDERLNVYGTTNVRVVDASVLPFQVCGHLVSTLYAVAERAADLIKADAGRR
modifications: SIGNAL (1)..(19)
Relative Activity [%] 1,10-Phenanthroline [1]: 52.6% and 51.0% | Relative Activity [%] Proflavin hydrochloride [2]: 11.1% and 11.6%

B6: K354N: modified GLD: SEQ ID NO: 1 with substitution K354N (protein, listed as Aspergillus terreus)
chain: MLGKLSFLSALSLAVAAPLSNSTSAKYDYIVIGGGTSGLAVANRLSEDPNVNVLILEAGGSVWNNPNVTNVDGYGLAFGSDIDWQYQSVNQPYGGNLSQVLRAGKALGGTSTINGMAYTRAEDVQIDAWETIGNTGWTWKNLFPYYRKSENFTVPTKSQTSLGASYEAGAHGHEGPLDVAFTQIESNNLTTYLNRTFQGMGLPWTEDVNGGKMRGFNLYPSTVNLEEYVREDAARAYYWPYKSRPNLHVLLNTFANRIVWDGEAHDGHITASGVEITSRNGTVRVINAEKEVIVSAGALKSPAILELSGIGNPSVLDKHNIPVKVNLPTVGENLQDQVNSHMDASGNTSISGTNAVSYPDVYDVFGDEAESVAKQIRANLKQYAADTAKANGNIMKAADLERLFEVQYDLIFKGRVPIAEVLNYPGSATSVFAEFWALLPFARGSVHIGSSNPAEFPVINPNYFMLDWDAKSYVAVAKYIRRSFESYPLSSIVKESTPGYDVIPRNASEQSWKEWVFDKNYRSNFHPVGTAAMMPREIGGVVDERLNVYGTTNVRVVDASVLPFQVCGHLVSTLYAVAERAADLIKADAGRR
modifications: SIGNAL (1)..(19)
Relative Activity [%] 1,10-Phenanthroline [1]: 61.9% | Relative Activity [%] Proflavin hydrochloride [2]: 15.1%

B7: K354Q: modified GLD: SEQ ID NO: 1 with substitution K354Q (protein, listed as Aspergillus terreus)
chain: MLGKLSFLSALSLAVAAPLSNSTSAKYDYIVIGGGTSGLAVANRLSEDPNVNVLILEAGGSVWNNPNVTNVDGYGLAFGSDIDWQYQSVNQPYGGNLSQVLRAGKALGGTSTINGMAYTRAEDVQIDAWETIGNTGWTWKNLFPYYRKSENFTVPTKSQTSLGASYEAGAHGHEGPLDVAFTQIESNNLTTYLNRTFQGMGLPWTEDVNGGKMRGFNLYPSTVNLEEYVREDAARAYYWPYKSRPNLHVLLNTFANRIVWDGEAHDGHITASGVEITSRNGTVRVINAEKEVIVSAGALKSPAILELSGIGNPSVLDKHNIPVKVNLPTVGENLQDQVNSHMDASGNTSISGTQAVSYPDVYDVFGDEAESVAKQIRANLKQYAADTAKANGNIMKAADLERLFEVQYDLIFKGRVPIAEVLNYPGSATSVFAEFWALLPFARGSVHIGSSNPAEFPVINPNYFMLDWDAKSYVAVAKYIRRSFESYPLSSIVKESTPGYDVIPRNASEQSWKEWVFDKNYRSNFHPVGTAAMMPREIGGVVDERLNVYGTTNVRVVDASVLPFQVCGHLVSTLYAVAERAADLIKADAGRR
modifications: SIGNAL (1)..(19)
Relative Activity [%] 1,10-Phenanthroline [1]: 71.4% | Relative Activity [%] Proflavin hydrochloride [2]: 12.5%

B8: K354G: modified GLD: SEQ ID NO: 1 with substitution K354G (protein, listed as Aspergillus terreus)
chain: MLGKLSFLSALSLAVAAPLSNSTSAKYDYIVIGGGTSGLAVANRLSEDPNVNVLILEAGGSVWNNPNVTNVDGYGLAFGSDIDWQYQSVNQPYGGNLSQVLRAGKALGGTSTINGMAYTRAEDVQIDAWETIGNTGWTWKNLFPYYRKSENFTVPTKSQTSLGASYEAGAHGHEGPLDVAFTQIESNNLTTYLNRTFQGMGLPWTEDVNGGKMRGFNLYPSTVNLEEYVREDAARAYYWPYKSRPNLHVLLNTFANRIVWDGEAHDGHITASGVEITSRNGTVRVINAEKEVIVSAGALKSPAILELSGIGNPSVLDKHNIPVKVNLPTVGENLQDQVNSHMDASGNTSISGTGAVSYPDVYDVFGDEAESVAKQIRANLKQYAADTAKANGNIMKAADLERLFEVQYDLIFKGRVPIAEVLNYPGSATSVFAEFWALLPFARGSVHIGSSNPAEFPVINPNYFMLDWDAKSYVAVAKYIRRSFESYPLSSIVKESTPGYDVIPRNASEQSWKEWVFDKNYRSNFHPVGTAAMMPREIGGVVDERLNVYGTTNVRVVDASVLPFQVCGHLVSTLYAVAERAADLIKADAGRR
modifications: SIGNAL (1)..(19)
Relative Activity [%] 1,10-Phenanthroline [1]: 60.8% | Relative Activity [%] Proflavin hydrochloride [2]: 23.0%
